The nature of this series: label from the status in PepcDB records.

This is an account of results in a protein production outcome set (Wang et al. 2014).

On to “GERPEPVFDAFADRLAEVAAVPYAMVNFIDENRQFFAGLHAPDGTGSGGRPAADGAEPPDVRRYMARDYGFCPHVVVRRKALVLEDVCDYPRFAGNPVVDEIGIRSYLGAPLIDRTGIALGTICVVDIEPRPWGRAGLETIKALAAELVEQIGRRESGGI”, for which the protein production entry is “failed”.
“GERRIPESRILRREVVEATSAVAAALQIPARAPVIEMTRVRLIDGAPMLAEEIWLPYDRFAAFSRLELDSIGDLLYPVYEAHCNQIVASATETLTVEAIGPAHARLLRIEPGTPAVVIERLAYGYDRRPLEWRRSRGPASEFIYQAEIR”: the protein production entry is “failed”.
For “GERRKDRPYVEEPRHVKVQKGSEPLGISIVSGEKGGIYVSKVTVGSIAHQAGLEYGDQLLEFNGINLRSATEQQARLIIGQQCDTITILAQYNPHVHQLSSHSR” the value was “not failed”.
Under “GGRRWNWVQSWPVWKYFKEYFPICLVKTQDLDPGHNYIFGFHPHGIFVPGAFGNFCTKYSDFKKLFPGFTSYLHVAKIWFCFPLFREYLMSNGPVSVSKESLSHVLSKDGGGNVSIIVLGGAKEALEAHPGTFTLCIRQRKGFVKMALTHGASLVPVFSFGENDLYKQINNPKGSWLRTIQDAMYDSMGVALPLIYARGIFQHYFGIMPYRKLIYTVVGRPIPVQQILNPTSEQIEELHQTYLEELKKLFNEHKGKYGIPEHETLVFK” stands “failed”; under “GGTSNEVAQFLSKENQVIVRMRGLPFTATAEEVVAFFGQHCPITGGKEGILFVTYPDGRPTGDAFVLFACEEYAQNALRKHKDLLGKRYIELFRSTAAEVQQVLNRFSSA”, “not failed”; under “GHFPRACVSSKNLMEKECCPPWSGDRSPCGQLSGRGSCQNILLSNAPLGPQFPFTGVDDRESWPSVFYNRTCQCSGNFMGFNCGNCKFGFWGPNCTERRLLVRRNIFDLSAPEKDKFFAYLTLAKHTISSDYVIPIGTYGQMKNGSTPMFNDINIYDLFVWMHYYVSMDALLGGSEIWRDIDFAHEAPAFLPWHRLFLLRWEQEIQKLTGDENFTIPYWDWRDAEKCDICTDEYMGGQHPTNPNLLSPASFFSSWQIVCSRLEEYNSHQSLCNGTPEGPLRRNPGNHDKSRTPRLPSSADVEFCLSLTQYESGSMDKAANFSFRNTLEGFASPLTGIADASQSSMHNALHIYMNGTMSQVQGSANDPIFLLHHAFVDSIFEQWLRRHRPLQEVYPEANAPIGHNRESYMVPFIPLYRNGDFFISSKDLGYDYSYLQDSDPDSFQDYIKSYLEQASRIWSWLLGAAMVGAVLTALLAGLVSLLCRHKRKQLPEEKQPLLMEKEDYHSLYQSHL”, “failed”.
For the sequence “GHMHTPFIVALDFPSKQEVERFLRPFAGTPLFVKVGMELYYQEGPAIVAFLKEQGHAVFLDLKLHDIPNTVKQAMKGLARVGADLVNVHAAGGRRMMEAAIEGLDAGTPSGRMRPRCIAVTQLTSTDERMLHEELWISRPLVETVAHYAALAKESGLDGVVCSANEAAFIKERCGASFLAVTPGIRFADDAAHDQVRVVTPRKARALGSDYIVIGRSLTRAADPLRTYARLQHEWNGGERESTTPT”, the protein production result was “not failed”.
For “GHMYETIRYEVKGQVAWLTLNRPDQLNAFTEQMNAEVTKALKQAGADPNVRCVVITGAGRAFCAGEDLSGVTEEMDHGDVLRSRYAPMMKALHHLEKPVVAAVNGAAAGAGMSLALACDFRLLSEKASFAPAFIHVGLVPDAGHLYYLPRLVGRAKALELAVLGEKVTAEEAAALGLATKVIPLSDWEEEVKQFAERLSAMPTKAIGLIKRLLRESEETTFDRYLEREAECQRIAGLTSDHREGVKAFFEKRKPLFQGN” the value was “not failed”.
